The values that follow come from patent US20080070791A1 (ZEPHYR PROTEOMIX, published 2008).

In the assay the target is T1, α4β1 integrin expressed on Jurkat cells (human, UniProt P13612 34-1032; P05556 21-798).
T1 construct: whole, on cells; Fluorescence-labeled Jurkat cells applied to the microarray; also called receptor recognizing the CS1 peptide
The assay is described as follows: cell adhesion of labeled Jurkat cells on microarray.

T1 sequence (P13612 34-1032, chain 1 of 2): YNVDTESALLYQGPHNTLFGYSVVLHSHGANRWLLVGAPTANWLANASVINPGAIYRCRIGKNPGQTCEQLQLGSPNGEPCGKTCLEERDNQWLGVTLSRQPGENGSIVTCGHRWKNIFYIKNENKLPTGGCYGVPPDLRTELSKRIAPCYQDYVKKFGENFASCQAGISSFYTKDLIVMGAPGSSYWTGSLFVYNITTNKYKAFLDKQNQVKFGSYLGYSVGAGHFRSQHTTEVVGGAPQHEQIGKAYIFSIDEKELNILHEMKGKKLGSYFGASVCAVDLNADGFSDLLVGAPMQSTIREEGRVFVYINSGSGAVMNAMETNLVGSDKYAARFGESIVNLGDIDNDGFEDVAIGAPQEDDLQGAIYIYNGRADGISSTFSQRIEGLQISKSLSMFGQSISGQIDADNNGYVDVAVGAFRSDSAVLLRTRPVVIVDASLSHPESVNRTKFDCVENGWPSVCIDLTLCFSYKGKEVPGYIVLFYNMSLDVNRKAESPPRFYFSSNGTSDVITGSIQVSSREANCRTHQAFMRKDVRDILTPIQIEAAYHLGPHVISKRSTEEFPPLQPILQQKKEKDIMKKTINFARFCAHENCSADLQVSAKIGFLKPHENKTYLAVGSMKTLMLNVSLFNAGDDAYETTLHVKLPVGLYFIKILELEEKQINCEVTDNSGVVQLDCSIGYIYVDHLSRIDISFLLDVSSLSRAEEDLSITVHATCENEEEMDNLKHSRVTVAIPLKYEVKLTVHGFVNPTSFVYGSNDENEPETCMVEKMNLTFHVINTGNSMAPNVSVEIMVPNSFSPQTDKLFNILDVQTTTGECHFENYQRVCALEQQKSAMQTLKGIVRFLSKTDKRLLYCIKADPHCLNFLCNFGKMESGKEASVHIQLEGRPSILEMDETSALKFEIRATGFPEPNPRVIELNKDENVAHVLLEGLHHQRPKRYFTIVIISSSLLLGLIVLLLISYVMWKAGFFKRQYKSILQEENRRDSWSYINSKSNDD
T1 sequence (P05556 21-798, chain 2 of 2): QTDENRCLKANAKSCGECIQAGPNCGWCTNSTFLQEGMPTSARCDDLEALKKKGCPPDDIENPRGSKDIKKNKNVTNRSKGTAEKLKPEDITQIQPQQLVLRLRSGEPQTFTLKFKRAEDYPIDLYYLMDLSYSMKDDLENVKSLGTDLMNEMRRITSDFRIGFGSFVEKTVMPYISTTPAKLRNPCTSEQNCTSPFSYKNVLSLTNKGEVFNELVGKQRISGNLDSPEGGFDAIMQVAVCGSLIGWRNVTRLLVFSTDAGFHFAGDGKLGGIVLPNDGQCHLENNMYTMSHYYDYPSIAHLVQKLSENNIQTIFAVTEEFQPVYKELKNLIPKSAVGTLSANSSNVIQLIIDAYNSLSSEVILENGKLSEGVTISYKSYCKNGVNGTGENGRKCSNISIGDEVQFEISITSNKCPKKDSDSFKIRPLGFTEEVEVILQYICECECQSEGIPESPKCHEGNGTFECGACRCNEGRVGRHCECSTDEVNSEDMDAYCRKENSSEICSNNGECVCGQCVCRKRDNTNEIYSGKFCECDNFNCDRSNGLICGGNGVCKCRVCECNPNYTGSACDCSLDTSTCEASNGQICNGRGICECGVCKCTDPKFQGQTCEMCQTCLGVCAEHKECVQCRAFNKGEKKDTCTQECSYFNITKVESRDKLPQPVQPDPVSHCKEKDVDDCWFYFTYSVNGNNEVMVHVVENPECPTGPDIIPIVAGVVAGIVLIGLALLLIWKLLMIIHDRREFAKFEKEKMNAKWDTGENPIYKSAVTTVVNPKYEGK
Method: Jurkat T-cells, a human leukemia line, were grown under the appropriate growing conditions. Shortly before the adherence assay, cells were washed with 5 mM EDTA in Tris-buffered saline (TBS, 10 mM Tris-HCl, pH 7.4, 150 mM NaCl) and then incubated with Cyto 82 (2 μM final concentration) for 30 min under continuous agitation. Labeled cells were washed twice with the same buffer and applied directly on the fabricated microarray slides.
The model of interaction chosen for this purpose was α4β1-CS1-interaction model. α4β1 is an integrin expressed by several types of adherent cells and can mediate cell matrix contact trough the known ligand fibronectin. […] The slides were washed extensively and the interaction was scanned by the microarray scanner (FIG. 12).

B1: recombinant protein comprising the cellulose binding region of SEQ ID NO:4 (other)
chain: NATPTKGATPTNTATPTKSATATPTRPSVPTNTPTNTPANTPVSGNLKVEFYNSNPSDTTNSINPQFKVTNTGSSAIDLSKLTLRYYYTVDGQKDQTFWCDHAAIIGSNGSYNGITSNVKGTFVKMSSSTNNADTYLEISFTGGTLEPGAHVQIQGRFAKNDWSNYTQSNDYSFKSASQFVEWDQVTAYLNGVLVWGKEPGGSVVPSTQPVTTPPATTKPPATTKPPATTIPPSDDPNA
Consider B1, for which the binding result is on record as “no binding (tested: highest array concentration)”.
